The text below walks through data of patent US20210221875A1 (Chugai, published 2021).

To fix the notation:
T1: soluble human IL-6R (human, UniProt P08887 20-357)
T1 construct: also called hsIL-6R; recombinant human IL6R
T1 sequence: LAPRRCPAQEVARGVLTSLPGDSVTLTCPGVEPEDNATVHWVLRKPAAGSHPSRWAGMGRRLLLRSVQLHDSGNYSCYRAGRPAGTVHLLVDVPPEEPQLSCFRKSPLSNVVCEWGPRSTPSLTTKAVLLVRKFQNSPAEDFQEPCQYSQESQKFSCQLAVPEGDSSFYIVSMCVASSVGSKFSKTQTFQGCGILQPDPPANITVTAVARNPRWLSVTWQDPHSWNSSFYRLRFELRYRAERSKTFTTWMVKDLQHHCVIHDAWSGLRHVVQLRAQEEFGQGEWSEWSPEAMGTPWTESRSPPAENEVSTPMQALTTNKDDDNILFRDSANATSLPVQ

B1: 20A11-G1m/VK1-39-k0MT (antibody, human IgG1, kappa, V domains shown)
VH: EVQLVESGGGLVQPGGSLRLSCAASGSVFKINVMAWYRQAPGKGRELVAGIISGGSTSYADSVKGRFTISRDNAKNTLYLQMNSLRPEDTAVYYCAFITTESDYDLGRRYWGQGTLVTVSS
VL: DIQMTQSPSSLSASVGDRVTITCRASQSISSYLNWYQQKPGKAPKLLIYAASSLQSGVPSRFSGSGSGTDFTLTISSLQPEDFATYYCLQFDSYPLTFGGGTKVEIKR
notes: IgG antibody-like molecule: anti-IL6R VHH 20A11 fused with human IgG1 CH1-hinge-CH2-CH3
B2: 20A11-G1m/VL2-14-lamL (antibody, human IgG1, lambda, V domains shown)
VH: EVQLVESGGGLVQPGGSLRLSCAASGSVFKINVMAWYRQAPGKGRELVAGIISGGSTSYADSVKGRFTISRDNAKNTLYLQMNSLRPEDTAVYYCAFITTESDYDLGRRYWGQGTLVTVSS
VL: QSALTQPASVSGSPGQSITISCTGTSSDVGGYNYVSWYQQHPGKAPKLMIYEVSNRPSGVSNRFSGSKSGNTASLTISGLQAEDEADYYCSSYRSGYTLVVFGGGTKLTVLG
notes: IgG antibody-like molecule with VHH 20A11 in place of VH
B3: 20A11-G1m/VK2-28-k0MT (antibody, human IgG1, kappa, V domains shown)
VH: EVQLVESGGGLVQPGGSLRLSCAASGSVFKINVMAWYRQAPGKGRELVAGIISGGSTSYADSVKGRFTISRDNAKNTLYLQMNSLRPEDTAVYYCAFITTESDYDLGRRYWGQGTLVTVSS
VL: not shown
notes: as for B2
B4: 20A11-G1m/VL3-21-lamL (antibody, human IgG1, lambda, V domains shown)
VH: EVQLVESGGGLVQPGGSLRLSCAASGSVFKINVMAWYRQAPGKGRELVAGIISGGSTSYADSVKGRFTISRDNAKNTLYLQMNSLRPEDTAVYYCAFITTESDYDLGRRYWGQGTLVTVSS
VL: SYVLTQPPSVSVAPGKTARITCGGNNIGSKSVHWYQQKPGQAPVLVIYYDSDRPSGIPERFSGSNSGNTATLTISRVEAGDEADYYCQAWDSSTDVVFGGGTKLTVLG
notes: as for B2
B5: 20A11-G1m/VL1-44-lamL (antibody, human IgG1, lambda, V domains shown)
VH: EVQLVESGGGLVQPGGSLRLSCAASGSVFKINVMAWYRQAPGKGRELVAGIISGGSTSYADSVKGRFTISRDNAKNTLYLQMNSLRPEDTAVYYCAFITTESDYDLGRRYWGQGTLVTVSS
VL: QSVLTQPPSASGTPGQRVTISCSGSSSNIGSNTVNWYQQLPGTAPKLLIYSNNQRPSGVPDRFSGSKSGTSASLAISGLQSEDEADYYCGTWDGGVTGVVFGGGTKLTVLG
notes: as for B2
B6: 20A11-G1m/VL1-40-lamL (antibody, human IgG1, lambda, V domains shown)
VH: EVQLVESGGGLVQPGGSLRLSCAASGSVFKINVMAWYRQAPGKGRELVAGIISGGSTSYADSVKGRFTISRDNAKNTLYLQMNSLRPEDTAVYYCAFITTESDYDLGRRYWGQGTLVTVSS
VL: QSVLTQPPSVSGAPGQRVTISCTGSSSNIGAGYDVHWYQQLPGTAPKLLIYGNSNRPSGVPDRFSGSKSGTSASLAITGLQAEDEADYYCQSYDNSLNAVVFGGGTKLTVLG
notes: as for B2
B7: GRA0124Hc0626-SG1/GRA0124Lc0544-SK2021 (antibody, human IgG1, kappa)
heavy: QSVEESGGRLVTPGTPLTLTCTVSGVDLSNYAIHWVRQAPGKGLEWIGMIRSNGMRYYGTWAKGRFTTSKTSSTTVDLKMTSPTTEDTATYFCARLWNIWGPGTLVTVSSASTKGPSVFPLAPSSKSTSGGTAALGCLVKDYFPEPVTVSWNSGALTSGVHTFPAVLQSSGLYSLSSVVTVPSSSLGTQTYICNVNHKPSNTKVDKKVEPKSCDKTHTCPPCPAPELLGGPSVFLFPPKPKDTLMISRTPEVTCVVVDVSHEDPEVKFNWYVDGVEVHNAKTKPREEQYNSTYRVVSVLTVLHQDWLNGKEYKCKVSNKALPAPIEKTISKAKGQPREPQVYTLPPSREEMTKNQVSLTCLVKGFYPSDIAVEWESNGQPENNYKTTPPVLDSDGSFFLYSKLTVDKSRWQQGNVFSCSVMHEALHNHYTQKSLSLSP
light: AQVLTQTPSSTSVAVGGTVTINCQSSPSVYLNLLAWYQQKPGQPPKLLIYSASFLQSGVPPRFSGSGSGTQFTLTISGVQCADAATYYCAGVYSNNIYTFGGGTKVEIKETVAAPSVFIFPPSDEQLKSGTASVVCLLNNFYPREAEVQWKVDNALQSGNSQESVTEQDSKDCTYSLSSTLTLSKADYEKHKVYACEVTHQGLSSPVTKSFNRGEC
notes: the row with this full length name is used
B8: GRA0124Hc0626-SG1265/GRA0124Lc0544-SK2 (antibody, human IgG1, kappa)
heavy: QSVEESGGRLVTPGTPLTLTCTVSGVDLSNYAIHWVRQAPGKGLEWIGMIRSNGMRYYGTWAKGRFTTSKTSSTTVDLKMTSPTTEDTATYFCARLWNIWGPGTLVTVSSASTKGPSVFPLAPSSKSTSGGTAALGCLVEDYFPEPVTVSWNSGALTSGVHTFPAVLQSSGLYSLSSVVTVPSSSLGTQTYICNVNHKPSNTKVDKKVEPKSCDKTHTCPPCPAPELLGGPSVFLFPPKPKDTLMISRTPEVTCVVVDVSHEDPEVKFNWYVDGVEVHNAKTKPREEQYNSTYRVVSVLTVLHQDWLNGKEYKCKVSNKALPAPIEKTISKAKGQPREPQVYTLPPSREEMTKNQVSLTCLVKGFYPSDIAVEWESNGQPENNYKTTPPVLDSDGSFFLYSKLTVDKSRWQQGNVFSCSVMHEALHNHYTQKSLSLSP
light: AQVLTQTPSSTSVAVGGTVTINCQSSPSVYLNLLAWYQQKPGQPPKLLIYSASFLQSGVPPRFSGSGSGTQFTLTISGVQCADAATYYCAGVYSNNIYTFGGGTKVEIKRTVAAPSVFIFPPSDEQLKSGTASVVCLLNNFYPREAKVQWKVDNALQSGNSQESVTEQDSKDCTYSLSSTLTLSKADYEKHKVYACEVTHQGLSSPVTKSFNRGEC
notes: full length antibody
B9: GRA0124Hc0626-SG1286/GRA0124Lc0544-SK2027 (antibody, human IgG1, kappa)
heavy: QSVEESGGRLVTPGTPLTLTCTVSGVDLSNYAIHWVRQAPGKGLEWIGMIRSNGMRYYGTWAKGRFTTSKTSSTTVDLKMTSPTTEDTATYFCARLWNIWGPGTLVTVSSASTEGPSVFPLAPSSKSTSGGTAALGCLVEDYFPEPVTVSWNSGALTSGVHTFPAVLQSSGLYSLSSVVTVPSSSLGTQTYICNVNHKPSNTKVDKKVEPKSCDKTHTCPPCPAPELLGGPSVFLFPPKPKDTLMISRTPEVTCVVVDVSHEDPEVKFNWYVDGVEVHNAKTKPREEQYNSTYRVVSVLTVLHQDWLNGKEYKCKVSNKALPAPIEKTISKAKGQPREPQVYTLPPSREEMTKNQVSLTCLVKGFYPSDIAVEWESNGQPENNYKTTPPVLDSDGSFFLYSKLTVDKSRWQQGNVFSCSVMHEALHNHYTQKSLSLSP
light: AQVLTQTPSSTSVAVGGTVTINCQSSPSVYLNLLAWYQQKPGQPPKLLIYSASFLQSGVPPRFSGSGSGTQFTLTISGVQCADAATYYCAGVYSNNIYTFGGGTKVEIKETVAAPSVFIFPPSDEQLKSGTASVVCLLNNFYPREAEVQWKVDNALQSGNSQESVTEQDSEDCTYSLSSTLTLSKADYEKHKVYACEVTHQGLSSPVTKSFNRGEC
notes: full length antibody
B10: GRA0124Hc0626-SG1286/GRA0124Lc0544-SK2025 (antibody, human IgG1, kappa)
heavy: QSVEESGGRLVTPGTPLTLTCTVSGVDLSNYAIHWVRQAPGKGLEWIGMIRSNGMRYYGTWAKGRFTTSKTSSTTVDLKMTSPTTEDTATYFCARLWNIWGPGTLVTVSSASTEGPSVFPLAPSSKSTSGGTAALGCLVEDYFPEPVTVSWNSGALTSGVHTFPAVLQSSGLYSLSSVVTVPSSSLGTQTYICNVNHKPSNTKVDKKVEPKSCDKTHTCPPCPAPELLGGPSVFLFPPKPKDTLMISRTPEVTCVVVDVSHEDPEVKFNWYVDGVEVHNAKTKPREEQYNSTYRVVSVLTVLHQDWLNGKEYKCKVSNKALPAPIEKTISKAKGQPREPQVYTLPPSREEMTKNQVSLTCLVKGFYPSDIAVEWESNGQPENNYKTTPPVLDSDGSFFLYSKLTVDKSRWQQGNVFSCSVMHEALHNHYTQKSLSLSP
light: AQVLTQTPSSTSVAVGGTVTINCQSSPSVYLNLLAWYQQKPGQPPKLLIYSASFLQSGVPPRFSGSGSGTQFTLTISGVQCADAATYYCAGVYSNNIYTFGGGTKVEIKRTVAAPSVFIFPPSDEQLKSGTASVVCLLNNFYPREAEVQWKVDNALQSGNSQESVTEQDSEDCTYSLSSTLTLSKADYEKHKVYACEVTHQGLSSPVTKSFNRGEC
B11: GRA0124Hc0626-SG1/GRA0124Lc0694-SK2 (antibody, human IgG1, kappa, V domains shown)
VH: QSVEESGGRLVTPGTPLTLTCTVSGVDLSNYAIHWVRQAPGKGLEWIGMIRSNGMRYYGTWAKGRFTTSKTSSTTVDLKMTSPTTEDTATYFCARLWNIWGPGTLVTVSS
VL: AQVLTQTPSSTSVAVGGTVTINCQSSPSVYLNLLAWYQQKPGQPPKLLIYSASALQSGVPPRFSGSGSGTQFTLTISGVQCADAATYYCAGVYSNNIYTFGGGTKVEIKR
notes: full length antibody
B12: GRA0124Hc0626-SG1265/GRA0124Lc0544-SK2021 (antibody, human IgG1, kappa)
heavy: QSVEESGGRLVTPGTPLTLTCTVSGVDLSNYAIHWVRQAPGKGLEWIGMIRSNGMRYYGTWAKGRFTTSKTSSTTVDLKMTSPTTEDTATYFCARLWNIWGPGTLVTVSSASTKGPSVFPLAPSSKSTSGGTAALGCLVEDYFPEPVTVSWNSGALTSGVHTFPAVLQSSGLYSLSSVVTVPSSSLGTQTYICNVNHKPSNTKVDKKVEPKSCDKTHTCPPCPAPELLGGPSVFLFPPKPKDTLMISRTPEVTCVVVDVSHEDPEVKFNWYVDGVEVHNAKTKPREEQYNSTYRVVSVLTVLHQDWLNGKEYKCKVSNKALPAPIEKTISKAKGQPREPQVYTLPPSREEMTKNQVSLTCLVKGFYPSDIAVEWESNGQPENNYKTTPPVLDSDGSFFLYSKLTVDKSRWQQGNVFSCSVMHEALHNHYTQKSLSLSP
light: AQVLTQTPSSTSVAVGGTVTINCQSSPSVYLNLLAWYQQKPGQPPKLLIYSASFLQSGVPPRFSGSGSGTQFTLTISGVQCADAATYYCAGVYSNNIYTFGGGTKVEIKETVAAPSVFIFPPSDEQLKSGTASVVCLLNNFYPREAEVQWKVDNALQSGNSQESVTEQDSKDCTYSLSSTLTLSKADYEKHKVYACEVTHQGLSSPVTKSFNRGEC
notes: the L chain name is printed with both 563 and 564 (564 stands in the row of the Fab SG1265/SK2021)
B13: GRA0124Hc0626-SG1286/GRA0124Lc0544-SK2 (antibody, human IgG1, kappa)
heavy: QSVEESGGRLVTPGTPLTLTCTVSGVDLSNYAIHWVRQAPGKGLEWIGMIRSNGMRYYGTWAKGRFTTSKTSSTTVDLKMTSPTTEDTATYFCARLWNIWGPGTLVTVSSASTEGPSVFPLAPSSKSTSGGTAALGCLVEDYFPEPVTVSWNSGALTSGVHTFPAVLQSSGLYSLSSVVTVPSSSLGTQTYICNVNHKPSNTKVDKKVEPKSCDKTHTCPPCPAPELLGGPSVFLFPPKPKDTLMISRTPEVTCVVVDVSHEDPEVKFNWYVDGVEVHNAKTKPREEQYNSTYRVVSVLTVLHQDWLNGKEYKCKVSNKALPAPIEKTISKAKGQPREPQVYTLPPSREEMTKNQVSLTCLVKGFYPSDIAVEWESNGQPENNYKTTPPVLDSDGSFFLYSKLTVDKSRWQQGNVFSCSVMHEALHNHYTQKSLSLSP
light: AQVLTQTPSSTSVAVGGTVTINCQSSPSVYLNLLAWYQQKPGQPPKLLIYSASFLQSGVPPRFSGSGSGTQFTLTISGVQCADAATYYCAGVYSNNIYTFGGGTKVEIKRTVAAPSVFIFPPSDEQLKSGTASVVCLLNNFYPREAKVQWKVDNALQSGNSQESVTEQDSKDCTYSLSSTLTLSKADYEKHKVYACEVTHQGLSSPVTKSFNRGEC
B14: GRA0124Hc1075-SG1/GRA0124Lc0952-SK2 (antibody, human IgG1, kappa, V domains shown)
VH: QSVEESGGDLVTPGTPLTLTCTVDGVDLSNYAIHWVRQAPGKGLEWIGMIRSNGMRYYGTWAKGRFTTSKTSSTTVDLKMTSPTTEDTATYFCARLWNIWGPGTLVTVSS
VL: AQVLDQTPSSTSVAVGGTVTINCQSSPSVYLNLLAWYQQKPGQPPKLLIYSASFLQSDVPDRFSGSGDGDQFDLDIDGVQCADAATYYCAGVYSNNIYTFGGGTKVEIKR
notes: full length antibody
B15: GRA0124Hc0626-SG1/GRA0124Lc0951-SK2 (antibody, human IgG1, kappa, V domains shown)
VH: QSVEESGGRLVTPGTPLTLTCTVSGVDLSNYAIHWVRQAPGKGLEWIGMIRSNGMRYYGTWAKGRFTTSKTSSTTVDLKMTSPTTEDTATYFCARLWNIWGPGTLVTVSS
VL: AQVLTQTPSSTSVAVGGTVTINCQSSPSVYLNLLAWYQQKPGQPPKLLIYSASFLQSDVPDRFSGSGDGDQFDLDIDGVQCADAATYYCAGVYSNNIYTFGGGTKVEIKR
notes: full length antibody
B16: GRA1013Hhz-SG1/GRA1013Lqz-SK2 (antibody, human IgG1, kappa)
heavy: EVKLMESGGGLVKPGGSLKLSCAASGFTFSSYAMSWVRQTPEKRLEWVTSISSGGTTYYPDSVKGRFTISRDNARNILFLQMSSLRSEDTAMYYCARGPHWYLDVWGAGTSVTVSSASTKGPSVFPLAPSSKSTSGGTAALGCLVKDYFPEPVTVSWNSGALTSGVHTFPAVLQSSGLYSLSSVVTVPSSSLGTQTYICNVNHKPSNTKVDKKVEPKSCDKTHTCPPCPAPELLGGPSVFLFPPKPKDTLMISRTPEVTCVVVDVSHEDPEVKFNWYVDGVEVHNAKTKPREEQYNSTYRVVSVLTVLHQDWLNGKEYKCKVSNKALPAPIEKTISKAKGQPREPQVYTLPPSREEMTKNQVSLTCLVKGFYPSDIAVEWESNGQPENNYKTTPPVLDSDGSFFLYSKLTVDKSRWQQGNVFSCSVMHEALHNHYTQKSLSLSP
light: DILMTQTPLSLPVSLGDQASISCRSSQSIVHSNGNTYLEWYLQKPGQSPKLLIYKVSNRFSGVPDRFSGSGSGTDFTLKISRVEAEDLGVYYCFQGSHLPLTFGAGTKLELKRTVAAPSVFIFPPSDEQLKSGTASVVCLLNNFYPREAKVQWKVDNALQSGNSQESVTEQDSKDCTYSLSSTLTLSKADYEKHKVYACEVTHQGLSSPVTKSFNRGEC
notes: full length antibody
B17: GRA0105Hg-SG1/GRA0105Lg-SK2 (antibody, human IgG1, kappa)
heavy: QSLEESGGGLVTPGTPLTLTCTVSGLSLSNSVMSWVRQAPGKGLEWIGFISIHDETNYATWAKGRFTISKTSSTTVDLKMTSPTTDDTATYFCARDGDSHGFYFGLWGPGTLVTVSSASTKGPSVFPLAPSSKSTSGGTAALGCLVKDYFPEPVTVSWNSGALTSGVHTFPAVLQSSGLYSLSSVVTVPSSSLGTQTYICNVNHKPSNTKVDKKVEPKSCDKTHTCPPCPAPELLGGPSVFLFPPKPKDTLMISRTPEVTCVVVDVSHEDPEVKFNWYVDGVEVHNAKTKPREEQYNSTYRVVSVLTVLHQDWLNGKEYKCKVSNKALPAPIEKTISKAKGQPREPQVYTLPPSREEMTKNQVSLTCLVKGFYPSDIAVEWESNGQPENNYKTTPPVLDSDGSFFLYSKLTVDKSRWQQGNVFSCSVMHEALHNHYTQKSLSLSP
light: AQVLTQTPSPVSAAVGGTVTINCQASQSVYNKNNLAWYQQKPGQPPKLLIYDASKLASGVPSRFKGGGSGTHFTLTISGVQCDDAATYYCQGTYYSSGWYNTFGGGTKVEIKRTVAAPSVFIFPPSDEQLKSGTASVVCLLNNFYPREAKVQWKVDNALQSGNSQESVTEQDSKDCTYSLSSTLTLSKADYEKHKVYACEVTHQGLSSPVTKSFNRGEC
notes: full length antibody
B18: 20A11hu-G1m/VK2-28-k0MT (antibody, human IgG1, kappa, V domains shown)
VH: EVQLVESGGGLVQPGGSLRLSCAASGSVFKINVMAWVRQAPGKGLEWVAGIISGGSTSYADSVKGRFTISRDNAKNTLYLQMNSLRPEDTAVYYCAFITTESDYDLGRRYWGQGTLVTVSS
VL: not shown
notes: IgG antibody-like molecule with VHH 20A11hu in place of VH
B19: 20A11hu-G1m/VK1-39-k0MT (antibody, human IgG1, kappa, V domains shown)
VH: EVQLVESGGGLVQPGGSLRLSCAASGSVFKINVMAWVRQAPGKGLEWVAGIISGGSTSYADSVKGRFTISRDNAKNTLYLQMNSLRPEDTAVYYCAFITTESDYDLGRRYWGQGTLVTVSS
VL: DIQMTQSPSSLSASVGDRVTITCRASQSISSYLNWYQQKPGKAPKLLIYAASSLQSGVPSRFSGSGSGTDFTLTISSLQPEDFATYYCLQFDSYPLTFGGGTKVEIKR
notes: IgG antibody-like molecule

The first experiment addresses T1, soluble human IL-6R. The experiment can be described thus: BLI (Octet), in the same way as in Example 3.
For the molecule B1, the binding result is reported as “binds”.

Regarding B2, the binding result is “binds”.

On to B3, for which the binding result is “binds”.

On to B4, for which the binding result is “binds”.

With B5, the binding result is recorded as “binds”.

Take B6: the binding result is on record as “binds”.

The target of a further experiment is T2, biotin-rabbit aggrecan G1-IGD-G2-3xFlag (rabbit, UniProt Q28670 17-683, biotin on the N-terminal Avi-tag (BirA co-expression)).
T2 construct: three tandem Flag-tags at the C-terminus and Avi-tag at the N-terminus; also called biotinylated Avi-rabbit aggrecan G1-IGD-G2-3xFLAG; Avi RbG1G2 3FLAG
The experiment can be described thus: SPR (Biacore T200), 37 C, pH 7.4, antibody captured, Avi RbG1G2 3Flag as analyte, 1:1 model.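 Note: antibodies captured at roughly 200 RU on a CM4 or C1 chip through anti-human IgG Fc or Protein A/G, in sodium phosphate NaCl buffer with Tween 20.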
Method: Anti-Human IgG (Fc) antibody was immobilized onto all flow cells of a CM4 sensor chip using Human antibody capture kit (GE Healthcare). Protein A/G was immobilized onto all flow cells of a CM4 or C1 sensor chip using amine coupling kit (GE Healthcare). Antibodies and analytes were prepared in buffer (50 mM Sodium Phosphate, 150 mM NaCl, 0.02% Tween 20, 0.005% NaN3, pH 7.4 or 20 mM Sodium Phosphate, 150 mM NaCl, 0.05% Tween20, 0.005% NaN₃, pH 7.4). Each antibody was captured onto the sensor surface by Anti-Human IgG (Fc) antibody or Protein A/G. Antibody capture levels were aimed at 200 resonance unit (RU). […] Sensor surface was regenerated each cycle with 3 M MgCl₂ or 10 mM Glycine-HCl, pH 1.5.
B7 yielded a Kd of 13.4 nM, a koff of 0.000718 s⁻¹ and a kon of 53500 M⁻¹ s⁻¹.

In turn, B8 returned a Kd of 15.9 nM, a koff of 0.000837 s⁻¹ and a kon of 52700 M⁻¹ s⁻¹.

As for B9, the affinity, expressed as Kd, was 15.1 nM; the koff stood at 0.00078 s⁻¹; the kon is 51700 M⁻¹ s⁻¹.

B10: binding was put at a Kd of 15.2 nM, the koff came to 0.000786 s⁻¹ and the kon was found to be 51900 M⁻¹ s⁻¹.

As for B11, the Kd came to 77.5 nM, the koff stood at 0.00202 s⁻¹ and the kon came out at 26100 M⁻¹ s⁻¹.

Molecule B12 yielded a Kd of 14.4 nM, a koff of 0.000757 s⁻¹ and a kon of 52700 M⁻¹ s⁻¹.

In the case of B13, the Kd is 17 nM, the koff was 0.000883 s⁻¹ and the kon is 51900 M⁻¹ s⁻¹.

As to B14, the Kd was found to be 3.68 nM, the koff worked out at 0.000267 s⁻¹ and the kon is 72700 M⁻¹ s⁻¹.

With B15, binding was characterised by a dissociation constant (Kd) of 4.04 nM, the koff is 0.000321 s⁻¹ and the kon came to 79400 M⁻¹ s⁻¹.

B16 had a Kd of 256 nM, a koff of 0.0147 s⁻¹ and a kon of 57600 M⁻¹ s⁻¹.

B17 yielded a Kd of 3.28 nM, a koff of 0.000455 s⁻¹ and a kon of 139000 M⁻¹ s⁻¹.

Another experiment addresses T1, soluble human IL-6R. Kind of experiment: BLI (Octet), in the same way as in Example 3, 30 C or 25 C.
In the case of B18, the binding result is recorded as “no binding”.

Turning to B19, the binding result is on record as “no binding”.
